# Measured values taken from US20230069835A1 (ACADEMIA SINICA, published 2023).
# T1: microsomal triglyceride transfer protein (MTTP), endogenous, in mouse intestinal epithelial cell lysates (mouse, UniProt O08601 22-894, limits assumed)
# T1 construct: Endogenous protein in IEC or intestinal cell lysates of control, PRAP1-/- or E85V mice
# T1 sequence (looked up): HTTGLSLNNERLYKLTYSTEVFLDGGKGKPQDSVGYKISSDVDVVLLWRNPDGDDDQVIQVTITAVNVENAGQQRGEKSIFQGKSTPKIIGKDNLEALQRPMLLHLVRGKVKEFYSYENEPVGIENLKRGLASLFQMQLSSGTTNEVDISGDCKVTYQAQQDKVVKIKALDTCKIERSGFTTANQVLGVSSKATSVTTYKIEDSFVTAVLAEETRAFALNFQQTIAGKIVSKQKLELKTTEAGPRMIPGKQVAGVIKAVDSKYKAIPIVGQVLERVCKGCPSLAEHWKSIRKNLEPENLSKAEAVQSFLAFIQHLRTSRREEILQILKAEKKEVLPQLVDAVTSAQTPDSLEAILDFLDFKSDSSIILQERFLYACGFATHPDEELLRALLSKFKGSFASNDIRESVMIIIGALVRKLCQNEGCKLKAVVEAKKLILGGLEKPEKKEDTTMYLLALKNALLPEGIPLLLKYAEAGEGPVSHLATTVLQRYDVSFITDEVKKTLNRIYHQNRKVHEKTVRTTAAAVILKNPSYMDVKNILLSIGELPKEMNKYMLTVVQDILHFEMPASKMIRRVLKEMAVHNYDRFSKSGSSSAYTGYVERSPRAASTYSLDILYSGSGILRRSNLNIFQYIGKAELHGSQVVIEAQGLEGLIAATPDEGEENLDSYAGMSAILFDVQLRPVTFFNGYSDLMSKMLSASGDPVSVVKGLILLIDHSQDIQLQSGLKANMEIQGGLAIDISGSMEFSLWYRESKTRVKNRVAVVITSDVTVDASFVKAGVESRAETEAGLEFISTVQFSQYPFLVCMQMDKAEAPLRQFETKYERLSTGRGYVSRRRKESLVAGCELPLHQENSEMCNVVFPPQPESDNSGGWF
# Molecular target: T1, microsomal triglyceride transfer …
# Assay: co-immunoprecipitation from IEC lysates with PRAP1- or MTTP-specific antibody, immunoblot
# Protocol: FIGS. 2A to 2H depict that PRAP1 formed a complex with microsomal triglyceride transfer protein (MTTP) and was involved in MTTP-mediated lipid transfer according to Example 2 of the present disclosure. FIG. 2A: Total intestinal cell lysates from control (WT), PRAP1^{-/-} (KO) or the E85V mutant mice (E85V) were immunoprecipitated with MTTP- or PRAP1-specific antibody, and the immune complexes (lanes 4-6) along with 1/50 input lysates as indicated were analyzed by immunoblotting using MTTP or PRAP1 antibodies. FIGS. 2B and 2C: Recombinant PRAP1 (rPRAR1, i.e., PRAP1ΔN20; designated as “rWT” in FIGS. 2B and 2C) stimulated the triglyceride (TG; FIG. 2B) and phospholipid (FIG. 2C) transfer activity of MTTP in the intestinal epithelial cells (IECs) purified from PRAP1^{-/-} mice. FIG. 2D: Immunoblotting analysis of MTTP expression in the intestinal cell lysates of control (PRAP1^{+/+}) or PRAP1^{-/-} mice. FIGS. 2E and 2F: MTTP-mediated transfer of TG (FIG. 2E) or phospholipid (FIG. 2F) was determined in PRAP1-deficient (PRAP1^{-/-}) IEC homogenates that had been pre-incubated with 10 μg of recombinant WT PRAP1 or the indicated mutant of PRAP1 (all without N-terminal 20 aa). […] N=3-4 for each panel. *, p<0.05; **, p<0.01; ***, p<0.001; n.s., p>0.05. FIGS. 2B, 2C, 2G and 2H: compared to the activity of PRAP1^{+/+} (bar 1). FIGS. 2E and 2F: compared to the activity in PRAP^{-/-} (bar 2). […]
binder,measurement,value
"endogenous E85V mutant PRAP1 in intestinal epithelial cells of E85V knock-in mice (other, Endogenous protein in lysates of PRAP1 E85V/E85V mice; The 20-aa signal peptide is called putative; also called E85V mutant of PRAP1; mouse E85V mutant PRAP1) APAHQVPVKTKGKHVFPEQETEKVWDTRALEPLEKDNQLGPLLPEPKQKPAAAEEKRPDAMTWVVTEDILSHLRSPLQGPELDLDSIDHPMSDDVQDEEVPQSRPILYRQVLQGPEEDLDHLAHSMEDS",binding result,no binding
